Source: patent publication US20220042033A1, “COMPOSITION AND METHOD FOR CONFERRING AND/OR ENHANCING TOLERANCE AGAINST HERBICIDES BY USING VARIANTS OF PPO” (FarmHannong Co., Ltd., priority 2017, published 2022)

Assays:
MxPPO [1] = test: PPO enzyme activity of purified MBP-fused MxPPO wild type and variants; assay type: biochemical, Myxococcus xanthus; conditions: PPO enzyme activity of purified MxPPO protein, relative to wild type
Description: Thus, PPO proteins of wild type and variants were expressed as fused to MBP and were used for experiments.
The following process for purification of PPO protein was performed in a 4° C. cold room. […] The column was washed with 3 column volumes of buffer and the presence of protein in the washing solution was examined. When the protein was no longer detected, the washing procedure was terminated. Then, the MBP-PPO protein was eluted with approximately 2 column volumes of buffer containing 20 mM maltose. The protein concentration of each eluent was determined and the elution was stopped when the protein was no longer detected. Ten microliter of each fraction was investigated for protein quantification and SDS-PAGE analysis. The highly pure fractions of PPO protein variants were used for the enzyme assay.
Since protoporphyrinogen IX, a substrate of PPO protein, was not commercially available, it was chemically synthesized in the laboratory. Overall process was performed in dark under nitrogen stream. […] of protoporphyrin IX was dissolved in 20 ml of 20% (v/v) EtOH, and stirred under dark condition for 30 minutes. The obtained protoporphyrin IX solution was put into a 15 ml screw tube in an amount of 800 μl, and flushed with nitrogen gas for 5 minutes. To this, 1.5 g of sodium amalgam was added and vigorously shaken for 2 minutes. The lid was opened to exhaust hydrogen gas in the tube. Thereafter, the lid was closed and incubated for 3 minutes. The protoporphyrinogen IX solution was filtered using syringe and cellulose membrane filter. To 600 μl of the obtained protoporphyrinogen IX solution, approximately 300 μl of 2M MOPS [3-(N-morpholino) propanesulfonic acid] was added to adjust pH to 8.0. To determine the enzyme activity of PPO protein, a reaction mixture was prepared with the following composition (based on 10 ml): 50 mM Tris-Cl (pH 8.0); 50 mM NaCl; 0.04% (v/v) Tween 20; 40 mM glucose (0.072 g); 5 units glucose oxidase (16.6 mg); and 10 units catalase (1 μl).
Hundred and eighty microliters of a reaction mixture […] were placed in 96 well plates and 20 μl of purified PPO proteins were added. After 50 μl of the mineral oil was layered, the reaction was initiated by adding the substrate, protoporphyrinogen IX solution, to a final concentration of 50 μM. The reaction proceeded at room temperature for 30 min and the fluorescence of protoporphyrin IX was measured using Microplate reader (Sense, Hidex) (excitation: 405 nm; emission: 633 nm). To calculate the PPO enzyme activity, the protoporphyrinogen IX solution was kept open in the air overnight to oxidize the solution. To this, 2.7 N HCl was added, and the absorbance at 408 nm was measured. A standard curve was generated using standard protoporphyrin IX, and PPO activity was measured by calibration of protoporphyrin IX using the standard curve of protoporphyrin IX.
Activities of variants were presented relatively compared to that of wild type.

MxPPO [2] = test: Herbicide tolerance test of MxPPO wild type and variants in PPO-deficient E. coli BT3(ΔPPO), growth on herbicide-containing LB agar; assay type: cell-based, Myxococcus xanthus; conditions: relative to MxPPO WT, light; for Herbicide tolerance, saflufenacil: up to 200 μM (FIG. 13); for Herbicide tolerance, tiafenacil: 2000 μM (FIG. 14); for Herbicide tolerance, sulfentrazone: up to 1000 μM (FIGS. 18-20)
Description: Then, the extent of tolerance was evaluated.

| Molecule | Activity (%) (MxPPO [1]) | Herbicide tolerance, flumioxazin (MxPPO [2]; up to 100 μM (FIG. 13)) | Herbicide tolerance, saflufenacil (MxPPO [2]) | Herbicide tolerance, tiafenacil (MxPPO [2]) | Herbicide tolerance, flumioxazin (MxPPO [2]; up to 400 μM (FIGS. 15-17)) | Herbicide tolerance, sulfentrazone (MxPPO [2]) |
| --- | --- | --- | --- | --- | --- | --- |
| A170L: MxPPO (SEQ ID NO: 3) variant (protein, Synthetic (Protoporphyrinogen IX oxidase (MxPPO) of Myxococcus xanthus)) MHHMPRTTGMNVAVVGGGISGLAVAHHLRSRGTDAVLLESSARLGGAVGTHALAGYLVEQGPNSFLDREPATRALAAALNLEGRIRAADPAAKRRYVYTRGRLRSVPASPPAFLASDILPLGARLRVAGELFSRRAPEGVDESLAAFGRRHLGHRATQVLLDAVQTGIYLGDVEQLSVAATFPMLVKMEREHRSLILGAIRAQKAQRQAALPAGTAPKLSGALSTFDGGLQVLIDALAASLGDAAHVGARVEGLAREDGGWRLIIEEHGRRAELSVAQVVLAAPAHATAKLLRPLDDALAALVAGIAYAPIAVVHLGFDAGTLPAPDGFGFLVPAEEQRRMLGAIHASTTFPFRAEGGRVLYSCMVGGARQPGLVEQDEDALAALAREELKALAGVTARPSFTRVFRWPLGIPQYNLGHLERVAAIDAALQRLPGLHLIGNAYKGVGLNDCIRNAAQLADALVAGNTSHAP | 40 | ++ (10-99 fold higher tolerance) | ++ (10-99 fold higher tolerance) |  |  |  |
| R95A + M365V: MxPPO (SEQ ID NO: 3) variant (protein, Synthetic (Protoporphyrinogen IX oxidase (MxPPO) of Myxococcus xanthus)) MHHMPRTTGMNVAVVGGGISGLAVAHHLRSRGTDAVLLESSARLGGAVGTHALAGYLVEQGPNSFLDREPATRALAAALNLEGRIRAADPAAKRAYVYTRGRLRSVPASPPAFLASDILPLGARLRVAGELFSRRAPEGVDESLAAFGRRHLGHRATQVLLDAVQTGIYAGDVEQLSVAATFPMLVKMEREHRSLILGAIRAQKAQRQAALPAGTAPKLSGALSTFDGGLQVLIDALAASLGDAAHVGARVEGLAREDGGWRLIIEEHGRRAELSVAQVVLAAPAHATAKLLRPLDDALAALVAGIAYAPIAVVHLGFDAGTLPAPDGFGFLVPAEEQRRMLGAIHASTTFPFRAEGGRVLYSCVVGGARQPGLVEQDEDALAALAREELKALAGVTARPSFTRVFRWPLGIPQYNLGHLERVAAIDAALQRLPGLHLIGNAYKGVGLNDCIRNAAQLADALVAGNTSHAP | 40 |  |  |  |  |  |
| A170C + M365V: MxPPO (SEQ ID NO: 3) variant (protein, Synthetic (Protoporphyrinogen IX oxidase (MxPPO) of Myxococcus xanthus)) MHHMPRTTGMNVAVVGGGISGLAVAHHLRSRGTDAVLLESSARLGGAVGTHALAGYLVEQGPNSFLDREPATRALAAALNLEGRIRAADPAAKRRYVYTRGRLRSVPASPPAFLASDILPLGARLRVAGELFSRRAPEGVDESLAAFGRRHLGHRATQVLLDAVQTGIYCGDVEQLSVAATFPMLVKMEREHRSLILGAIRAQKAQRQAALPAGTAPKLSGALSTFDGGLQVLIDALAASLGDAAHVGARVEGLAREDGGWRLIIEEHGRRAELSVAQVVLAAPAHATAKLLRPLDDALAALVAGIAYAPIAVVHLGFDAGTLPAPDGFGFLVPAEEQRRMLGAIHASTTFPFRAEGGRVLYSCVVGGARQPGLVEQDEDALAALAREELKALAGVTARPSFTRVFRWPLGIPQYNLGHLERVAAIDAALQRLPGLHLIGNAYKGVGLNDCIRNAAQLADALVAGNTSHAP | 71 |  |  | + (1-9 fold higher tolerance) | ++ (10-99 fold higher tolerance) | + (1-9 fold higher tolerance) |
| A170C + M365I: MxPPO (SEQ ID NO: 3) variant (protein, Synthetic (Protoporphyrinogen IX oxidase (MxPPO) of Myxococcus xanthus)) MHHMPRTTGMNVAVVGGGISGLAVAHHLRSRGTDAVLLESSARLGGAVGTHALAGYLVEQGPNSFLDREPATRALAAALNLEGRIRAADPAAKRRYVYTRGRLRSVPASPPAFLASDILPLGARLRVAGELFSRRAPEGVDESLAAFGRRHLGHRATQVLLDAVQTGIYCGDVEQLSVAATFPMLVKMEREHRSLILGAIRAQKAQRQAALPAGTAPKLSGALSTFDGGLQVLIDALAASLGDAAHVGARVEGLAREDGGWRLIIEEHGRRAELSVAQVVLAAPAHATAKLLRPLDDALAALVAGIAYAPIAVVHLGFDAGTLPAPDGFGFLVPAEEQRRMLGAIHASTTFPFRAEGGRVLYSCIVGGARQPGLVEQDEDALAALAREELKALAGVTARPSFTRVFRWPLGIPQYNLGHLERVAAIDAALQRLPGLHLIGNAYKGVGLNDCIRNAAQLADALVAGNTSHAP | 78 |  |  |  | + (1-9 fold higher tolerance) | + (1-9 fold higher tolerance) |
| I311M + M365I: MxPPO (SEQ ID NO: 3) variant (protein, Synthetic (Protoporphyrinogen IX oxidase (MxPPO) of Myxococcus xanthus)) MHHMPRTTGMNVAVVGGGISGLAVAHHLRSRGTDAVLLESSARLGGAVGTHALAGYLVEQGPNSFLDREPATRALAAALNLEGRIRAADPAAKRRYVYTRGRLRSVPASPPAFLASDILPLGARLRVAGELFSRRAPEGVDESLAAFGRRHLGHRATQVLLDAVQTGIYAGDVEQLSVAATFPMLVKMEREHRSLILGAIRAQKAQRQAALPAGTAPKLSGALSTFDGGLQVLIDALAASLGDAAHVGARVEGLAREDGGWRLIIEEHGRRAELSVAQVVLAAPAHATAKLLRPLDDALAALVAGIAYAPMAVVHLGFDAGTLPAPDGFGFLVPAEEQRRMLGAIHASTTFPFRAEGGRVLYSCIVGGARQPGLVEQDEDALAALAREELKALAGVTARPSFTRVFRWPLGIPQYNLGHLERVAAIDAALQRLPGLHLIGNAYKGVGLNDCIRNAAQLADALVAGNTSHAP | 75 |  |  | + (1-9 fold higher tolerance) | ++ (10-99 fold higher tolerance) | + (1-9 fold higher tolerance) |
| R95A: MxPPO (SEQ ID NO: 3) variant (protein, Synthetic (Protoporphyrinogen IX oxidase (MxPPO) of Myxococcus xanthus)) MHHMPRTTGMNVAVVGGGISGLAVAHHLRSRGTDAVLLESSARLGGAVGTHALAGYLVEQGPNSFLDREPATRALAAALNLEGRIRAADPAAKRAYVYTRGRLRSVPASPPAFLASDILPLGARLRVAGELFSRRAPEGVDESLAAFGRRHLGHRATQVLLDAVQTGIYAGDVEQLSVAATFPMLVKMEREHRSLILGAIRAQKAQRQAALPAGTAPKLSGALSTFDGGLQVLIDALAASLGDAAHVGARVEGLAREDGGWRLIIEEHGRRAELSVAQVVLAAPAHATAKLLRPLDDALAALVAGIAYAPIAVVHLGFDAGTLPAPDGFGFLVPAEEQRRMLGAIHASTTFPFRAEGGRVLYSCMVGGARQPGLVEQDEDALAALAREELKALAGVTARPSFTRVFRWPLGIPQYNLGHLERVAAIDAALQRLPGLHLIGNAYKGVGLNDCIRNAAQLADALVAGNTSHAP | 43 |  |  |  |  |  |
| I311M: MxPPO (SEQ ID NO: 3) variant (protein, Synthetic (Protoporphyrinogen IX oxidase (MxPPO) of Myxococcus xanthus)) MHHMPRTTGMNVAVVGGGISGLAVAHHLRSRGTDAVLLESSARLGGAVGTHALAGYLVEQGPNSFLDREPATRALAAALNLEGRIRAADPAAKRRYVYTRGRLRSVPASPPAFLASDILPLGARLRVAGELFSRRAPEGVDESLAAFGRRHLGHRATQVLLDAVQTGIYAGDVEQLSVAATFPMLVKMEREHRSLILGAIRAQKAQRQAALPAGTAPKLSGALSTFDGGLQVLIDALAASLGDAAHVGARVEGLAREDGGWRLIIEEHGRRAELSVAQVVLAAPAHATAKLLRPLDDALAALVAGIAYAPMAVVHLGFDAGTLPAPDGFGFLVPAEEQRRMLGAIHASTTFPFRAEGGRVLYSCMVGGARQPGLVEQDEDALAALAREELKALAGVTARPSFTRVFRWPLGIPQYNLGHLERVAAIDAALQRLPGLHLIGNAYKGVGLNDCIRNAAQLADALVAGNTSHAP | 87 | ++ (10-99 fold higher tolerance) | ++ (10-99 fold higher tolerance) |  |  |  |
